For this assay, the target named is CD20 on autologous CD19+CD20+ B cells (human) (UniProt P11836). As to the kind of experiment: cell-based or functional assay.

This passage reports fold of CD69 activation of Tregs, hFXP3-driven CAR, 24 h with autologous B cells and fold of CD69 activation of Tregs, hPGK-driven CAR (TX028), 24 h with autologous B cells results from patent publication WO2021028359A1.

“And” between values parts separate entries of the source, which are not always exact repeats. Identical values can stand only once.

Sequence of CD20 on autologous CD19+CD20+ B cells (human) (P11836 whole entry): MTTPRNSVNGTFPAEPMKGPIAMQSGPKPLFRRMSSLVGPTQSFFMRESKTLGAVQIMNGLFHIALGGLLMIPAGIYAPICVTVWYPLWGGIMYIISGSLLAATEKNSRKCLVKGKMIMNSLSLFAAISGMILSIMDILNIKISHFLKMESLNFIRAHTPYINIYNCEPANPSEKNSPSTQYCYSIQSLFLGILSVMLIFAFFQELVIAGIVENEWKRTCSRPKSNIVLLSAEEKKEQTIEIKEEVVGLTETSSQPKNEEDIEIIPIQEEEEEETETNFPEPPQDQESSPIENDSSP

Turning to “CD20 CAR (CD8 leader, scFv directed against CD20 (B9E9), streptavidin tag, CD8 alpha linker and transmembrane domain, 4-1BB activation domain, CD3 zeta activation domain) (receptor)”, the fold of CD69 activation of Tregs, hFXP3-driven CAR, 24 h with autologous B cells was 1.9 fold and 1.8 fold; the fold of CD69 activation of Tregs, hPGK-driven CAR (TX028), 24 h with autologous B cells is 1.5 fold.
